Measured values: PMC12079668 (2025)

Experiments:
Experiment in all cases: ITC
[1] = target: T1, full-length mouse Cavin1, His-MBP-tagged (mouse, UniProt O54724 1-392)
T1 chain: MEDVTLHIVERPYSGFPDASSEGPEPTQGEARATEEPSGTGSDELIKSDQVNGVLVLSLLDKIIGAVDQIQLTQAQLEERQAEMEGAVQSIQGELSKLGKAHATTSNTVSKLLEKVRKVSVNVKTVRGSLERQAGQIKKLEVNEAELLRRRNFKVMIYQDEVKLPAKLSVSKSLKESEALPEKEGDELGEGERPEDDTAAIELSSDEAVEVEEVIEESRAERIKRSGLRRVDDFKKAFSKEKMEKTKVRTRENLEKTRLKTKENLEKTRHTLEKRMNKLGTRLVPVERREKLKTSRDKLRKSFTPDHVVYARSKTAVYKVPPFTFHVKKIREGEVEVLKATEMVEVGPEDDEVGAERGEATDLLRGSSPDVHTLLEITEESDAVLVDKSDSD

[2] = target: T2, N-terminal fragment of mouse Cavin1 HR1 domain (residues 45–103) (mouse, UniProt O54724 45-103)
T2 chain: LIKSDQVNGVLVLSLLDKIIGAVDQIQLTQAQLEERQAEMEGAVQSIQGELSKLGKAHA

[3] = target: T3, mouse Cavin1 HR1 domain (residues 45–155), His-Ub-tagged (mouse, UniProt O54724 45-155)
T3 chain: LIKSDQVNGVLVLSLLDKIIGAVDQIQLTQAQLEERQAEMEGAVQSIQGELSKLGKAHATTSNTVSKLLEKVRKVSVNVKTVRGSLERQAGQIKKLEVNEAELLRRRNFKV

[4] = target: T4, mouse Cavin1 HR1 domain 5Q mutant (mouse, UniProt O54724 45-155, Lys115 to glutamine | Arg117 to glutamine | Lys118 to glutamine | Lys124 to …)
T4 sequence: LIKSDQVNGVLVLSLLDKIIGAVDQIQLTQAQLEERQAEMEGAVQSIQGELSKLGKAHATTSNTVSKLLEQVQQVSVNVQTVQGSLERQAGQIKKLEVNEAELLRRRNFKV

B1: nanobody NbA12 (VHH)
VHH: QVQLQESGGGLVQAGGSLRLSCAASGFTFDDYAIGWFRQAPGKEREGVSCITSSDGSTYYADSVKGRFTISSDNAKNTVYLQMNSLKPEDTAVYYCAAESWPPLCHYSGMDYWGKGTQVTVSS
Kd [1]: 8880 nM | Kd [2]: 555 nM | Kd [3]: 500 nM | Kd [4]: 143 nM

B2: nanobody NbB7 (VHH)
VHH: QVQLQESGGGLVQAGGSLRLSCAVSGIRVNVNAMYWYRQAPGKQRELVAIITTFGSTNYADSAKGRFTISRDNTKNTVYLQMDNLKPEDTAVYYCNAPQFTDRYWGQGTQVTVSS
Kd [1]: 1730 nM | Kd [2]: 451 nM
